The record followed here is the supplement of paper PMC10201428.

Data set [1] relates to VchCAST RNA-guided transposition machinery (E. coli BL21(DE3) host, lacZ target). The data set is described as follows: relative integration efficiency (T-RL orientation) vs wild-type transposon end (log2 (normalized fold change)); transposon end mutated: right end (5 bp flank + 75 bp right end); higher = more efficient transposition. The essentials:
(§1)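 Pools of 1549 left-end or 1849 right-end barcoded transposon variants were cloned into a pUC57 mini-transposon donor and co-transformed into E. coli BL21(DE3) with a T7-driven effector plasmid carrying a CRISPR array, tniQ-cas8-cas7-cas6 and tnsA-tnsB-tnsC. Plating used 0.1 mM IPTG at 37°C for 18 h, and input plasmids and genomic integration junctions were PCR-amplified for Illumina sequencing, with two biological output replicates and four reference barcodes. Relative integration efficiency is the log-transformed fold change of output over input barcode abundance, normalised to the reference barcodes.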

For data set [2] the test system is unchanged. As to the kind of experiment: relative integration efficiency (T-LR orientation) vs wild-type transposon end (log2 (normalized fold change)); transposon end mutated: right end (5 bp flank + 75 bp right end); higher = more efficient transposition. The essentials:
as §1

± gives the standard deviation of the averaged measurements.

Take “ACATTTGTTGATACAACCATAAAATGATAATTACACCCATAAATTGATAATTATCACACCCATAAATTGATATTGCCTCTGATCATAATTGTTATCCGCTCACAATTCCAGTCAGACGCACCGACAC”: the figures for the “relative integration efficiency (log2)” value in data set [1] and in data set [2] were -0.659 ± 0.41 and 0.885 ± 0.33, respectively.

Regarding “ACATTTGTTGATACAACCATAAAATGATAATTACACCCATAAATTGATAATTATCACACCCATAAATTGATATTGCCTCTGATCATACAACCATAAAATGATAATTAGTCAGACCAAGCACCGACAC”, the “relative integration efficiency (log2)” value was 0.403 ± 0.3 in data set [1] and -0.751 ± 0.19 in data set [2].

Turning to “ACATTTGTTGATACAACCATAAAATGATAATTACACCCATAAATTGATAATTATCACACCCATAAATTGATATTGCCTCTGATCATAGCAACCATAAAATGATAATTATCAGACCAAGCACCGACAC”, the entries for the “relative integration efficiency (log2)” value in data set [1] and in data set [2] were -0.108 ± 0.26 and -0.337 ± 0.55, respectively.

Take “ACATTTGTTGATACAACCATAAAATGATAATTACACCCATAAATTGATAATTATCACACCCATAAATTGATATTGCCTCTGATCATAGCGTACTAGTTAACTAGTTCGAGTCAGACCGCACCGACAC”: the “relative integration efficiency (log2)” value in data set [1] was -0.142 ± 0.091; in data set [2], -0.453 ± 0.046.

As for “ACATTTGTTGATACAACCATAAAATGATAATTACACCCATAAATTGATAATTATCACACCCATAAATTGATATTGCCTCTGATCATAGTCAAACTGTATTTATATACAGTTGGACCAGCACCGACAC”, the “relative integration efficiency (log2)” value is 0.00825 ± 0.2 in data set [1] and 0.414 ± 0.18 in data set [2].

Turning to “ACATTTGTTGATACAACCATAAAATGATAATTACACCCATAAATTGATAATTATCACACCCATAAATTGATATTGCCTCTGATCATAGTCAACCATAAAATGATAATTACAGACCAAGCACCGACAC”, the “relative integration efficiency (log2)” value was -0.223 ± 0.2 in data set [1] and -0.792 ± 0.34 in data set [2].

Take “ACATTTGTTGATACAACCATAAAATGATAATTACACCCATAAATTGATAATTATCACACCCATAAATTGATATTGCCTCTGATCATAGTCAACTGTATATAAATACAGTTCAGACCAGCACCGACAC”: the “relative integration efficiency (log2)” value is -0.116 ± 0.21 in data set [1] and 0.274 ± 0.022 in data set [2].

Take “ACATTTGTTGATACAACCATAAAATGATAATTACACCCATAAATTGATAATTATCACACCCATAAATTGATATTGCCTCTGATCATAGTCAATGTGATAACAATCACAGAAGACCAAGCACCGACAC”: the entries for the “relative integration efficiency (log2)” value in data set [1] and in data set [2] were 0.245 ± 0.16 and -0.0829 ± 0.35, respectively.

With “ACATTTGTTGATACAACCATAAAATGATAATTACACCCATAAATTGATAATTATCACACCCATAAATTGATATTGCCTCTGATCATAGTCACAACCATAAAATGATAATTAGACCAAGCACCGACAC”, the “relative integration efficiency (log2)” value was -0.196 ± 0.19 in data set [1] and -0.387 ± 0.086 in data set [2].

“ACATTTGTTGATACAACCATAAAATGATAATTACACCCATAAATTGATAATTATCACACCCATAAATTGATATTGCCTCTGATCATAGTCAGACAACCATAAAATGATAATTACCAAGCACCGACAC”: the “relative integration efficiency (log2)” value is -0.231 ± 0.065 in data set [1] and -0.436 ± 0.47 in data set [2].

Turning to “ACATTTGTTGATACAACCATAAAATGATAATTACACCCATAAATTGATAATTATCACACCCATAAATTGATATTGCCTCTGATCATAGTCAGACCAACAACCATAAAATGATAATTAGCACCGACAC”, the “relative integration efficiency (log2)” value in data set [1] was 0.0312 ± 0.094; in data set [2] it was -0.0679 ± 0.32.

Turning to “ACATTTGTTGATACAACCATAAAATGATAATTACACCCATAAATTGATAATTATCACACCCATAAATTGATATTGCCTCTGATCATAGTCAGACCAACATTTGTGAGCGGATAACAAGCACCGACAC”, the “relative integration efficiency (log2)” value in data set [1] is -0.379 ± 0.087; in data set [2], -0.684 ± 0.077.

As to “ACATTTGTTGATACAACCATAAAATGATAATTACACCCATAAATTGATAATTATCACACCCATAAATTGATATTGCCTCTGATCATAGTCAGACCAACCATAAAATGATAATTACAAGCACCGACAC”, the results for the “relative integration efficiency (log2)” value in data set [1] and in data set [2] were -0.253 ± 0.23 and -0.0296 ± 0.24, respectively.

With “ACATTTGTTGATACAACCATAAAATGATAATTACACCCATAAATTGATAATTATCACACCCATAAATTGATATTGCCTCTGATCATAGTCAGACCACAACCATAAAATGATAATTAAGCACCGACAC”, the “relative integration efficiency (log2)” value in data set [1] was -0.0173 ± 0.24; in data set [2], -0.205 ± 0.37.

Consider “ACATTTGTTGATACAACCATAAAATGATAATTACACCCATAAATTGATAATTATCACACCCATAAATTGATATTGCCTCTGATCATAGTCAGACCCAACCATAAAATGATAATTAAAGCACCGACAC”, for which the “relative integration efficiency (log2)” value is 0.0847 ± 0.29 in data set [1] and 0.192 ± 0.26 in data set [2].

In the case of “ACATTTGTTGATACAACCATAAAATGATAATTACACCCATAAATTGATAATTATCACACCCATAAATTGATATTGCCTCTGATCATAGTCAGATGAATTTTTATGCAAAGACCAACAGCACCGACAC”, the “relative integration efficiency (log2)” value in data set [1] was found to be 0.552 ± 0.3; in data set [2], 0.652 ± 0.2.

Take “ACATTTGTTGATACAACCATAAAATGATAATTACACCCATAAATTGATAATTATCACACCCATAAATTGATATTGCCTCTGATCATAGTCAGCAACCATAAAATGATAATTAACCAAGCACCGACAC”: the “relative integration efficiency (log2)” value in data set [1] is -0.283 ± 0.15; in data set [2] it was -0.485 ± 0.41.

With “ACATTTGTTGATACAACCATAAAATGATAATTACACCCATAAATTGATAATTATCACACCCATAAATTGATATTGCCTCTGATCATAGTCAGCTGAAGCGAGACACCGACCAACATTGCACCGACAC”, the “relative integration efficiency (log2)” value in data set [1] is -0.174 ± 0.19; in data set [2], -0.204 ± 0.33.

In the case of “ACATTTGTTGATACAACCATAAAATGATAATTACACCCATAAATTGATAATTATCACACCCATAAATTGATATTGCCTCTGATCATAGTCCAACCATAAAATGATAATTAAGACCAAGCACCGACAC”, the figures for the “relative integration efficiency (log2)” value in data set [1] and in data set [2] were -0.312 ± 0.44 and -0.498 ± 1.1, respectively.

On to “ACATTTGTTGATACAACCATAAAATGATAATTACACCCATAAATTGATAATTATCACACCCATAAATTGATATTGCCTCTGATCATAGTCGAACTAGTTAACTAGTACGCTCAGACCGCACCGACAC”, for which the figures for the “relative integration efficiency (log2)” value in data set [1] and in data set [2] were -0.00349 ± 0.18 and 0.192 ± 0.2, respectively.

For “ACATTTGTTGATACAACCATAAAATGATAATTACACCCATAAATTGATAATTATCACACCCATAAATTGATATTGCCTCTGATCATAGTCTGTGATTGTTATCACATTTCAGACCAAGCACCGACAC”, the “relative integration efficiency (log2)” value is -0.0662 ± 0.076 in data set [1] and 0.209 ± 0.1 in data set [2].

For “ACATTTGTTGATACAACCATAAAATGATAATTACACCCATAAATTGATAATTATCACACCCATAAATTGATATTGCCTCTGATCATAGTCTTGTGAGCGGATAACAAAGACCAACATGCACCGACAC”, the “relative integration efficiency (log2)” value in data set [1] was 0.141 ± 0.16; in data set [2], -0.0553 ± 0.18.

“ACATTTGTTGATACAACCATAAAATGATAATTACACCCATAAATTGATAATTATCACACCCATAAATTGATATTGCCTCTGATCATATTTAATAATTAATTTATATATTTAAGTCAGGCACCGACAC”: the “relative integration efficiency (log2)” value was determined as 0.707 ± 0.19 in data set [1] and 0.961 ± 0.58 in data set [2].

As for “ACATTTGTTGATACAACCATAAAATGATAATTACACCCATAAATTGATAATTATCACACCCATAAATTGATATTGCCTCTGATCATCAACCATAAAATGATAATTAAGTCAGACCAAGCACCGACAC”, the “relative integration efficiency (log2)” value turned out to be 0.146 ± 0.35 in data set [1] and 0.201 ± 0.068 in data set [2].

Turning to “ACATTTGTTGATACAACCATAAAATGATAATTACACCCATAAATTGATAATTATCACACCCATAAATTGATATTGCCTCTGATCATGGTGTCTCGCTTCAGCAGTCAGACCAACATTGCACCGACAC”, the entries for the “relative integration efficiency (log2)” value in data set [1] and in data set [2] were -0.125 ± 0.18 and -0.507 ± 0.025, respectively.

Turning to “ACATTTGTTGATACAACCATAAAATGATAATTACACCCATAAATTGATAATTATCACACCCATAAATTGATATTGCCTCTGATCATTTACTTTTGGTTACATATTTAGTCAGACCAAGCACCGACAC”, the “relative integration efficiency (log2)” value in data set [1] stood at 0.0213 ± 0.19; in data set [2], 0.713 ± 0.049.

Consider “ACATTTGTTGATACAACCATAAAATGATAATTACACCCATAAATTGATAATTATCACACCCATAAATTGATATTGCCTCTGATCATTTGCATAAAAATTCATCTAGTCAGACCAACAGCACCGACAC”, for which the “relative integration efficiency (log2)” value in data set [1] was -0.15 ± 0.36; in data set [2], -0.0028 ± 0.22.

Turning to “ACATTTGTTGATACAACCATAAAATGATAATTACACCCATAAATTGATAATTATCACACCCATAAATTGATATTGCCTCTGATCCAACCATAAAATGATAATTAATAGTCAGACCAAGCACCGACAC”, the “relative integration efficiency (log2)” value in data set [1] came to 0.156 ± 0.25; in data set [2] it was 0.046 ± 0.066.

Consider “ACATTTGTTGATACAACCATAAAATGATAATTACACCCATAAATTGATAATTATCACACCCATAAATTGATATTGCCTCTGATCGTTTTAAGGATGACTTCAGTCGCGCCGTACTTCGCACCGACAC”, for which the “relative integration efficiency (log2)” value in data set [1] is -0.207 ± 0.2; in data set [2], -0.209 ± 0.13.

For “ACATTTGTTGATACAACCATAAAATGATAATTACACCCATAAATTGATAATTATCACACCCATAAATTGATATTGCCTCTGCAACCATAAAATGATAATTAATCATAGTCAGACCAAGCACCGACAC”, the entries for the “relative integration efficiency (log2)” value in data set [1] and in data set [2] were -0.336 ± 0.3 and -0.129 ± 0.36, respectively.

Take “ACATTTGTTGATACAACCATAAAATGATAATTACACCCATAAATTGATAATTATCACACCCATAAATTGATATTGCCTCTGGCGCTCTGTACCCCGCTCGGTCCTCCCGCGCATCGCGCACCGACAC”: the “relative integration efficiency (log2)” value in data set [1] was 0.194 ± 0.14; in data set [2], -0.0593 ± 0.17.

With “ACATTTGTTGATACAACCATAAAATGATAATTACACCCATAAATTGATAATTATCACACCCATAAATTGATATTGCCTCTGGCTAGCACTATACCTAGGACTGAGCTAGCCGTCAACGCACCGACAC”, the “relative integration efficiency (log2)” value in data set [1] was -4.7 ± 0.55; in data set [2], 0.877 ± 0.31.
